Legend:
[1] = MSM ophthalmic drops in patients; type: in vivo
Description: We have used aqueous solutions of MSM filtered, sterilized, and mixed with insulin.

[2] = cited from earlier work
[3] = ADT given orally and as eye drops in dry mouth and dry eyes conditions; type: in vivo; settings: 25 mg orally and nanograms concentration in eye drops
Method: Follow the instruction as described in the above EXAMPLE 1. Another drug available to treat autoimmune disease related to Sjogren's disease is an organo sulfur compound, anethole dithiolethione (ADT-trade name Sialor, sold over the counter in Canada) with hardly any side effects. The ADT stimulates the secretion of saliva, in patients with autoimmune exocrinopathy (Sjogren's syndrome). Sialor alleviates the symptoms of xerostomia and xeroophthalmia. We have used ADT 25 mg orally and ADT in nanograms concentration in liquid ophthalmic eye drops with successes in these conditions, especially, those on chemotherapy, menopausal women, and chronic smokers with dry mouth and dry eyes conditions.

[4] = Curcumin safety for retina and CNS; settings: in vivo
Description: Deferoxamine may modulate expression and release of inflammatory mediators in the retinitis pigmentosa as indicated in Fenton reaction by specific cell types, thus, reduce or stop the damage by our invention. Deferoxamine used with insulin of our invention along with ophthalmic drops can reduce the ROS oxidant damage, arrest, or delay the processes of retinitis pigmentosa. We have used this method to treat the CNS disease with good results. We have used the extract of Turmeric, called curcumin, with insulin as antioxidant with good results.

[5] = in vivo; cited from earlier work
photoreceptor cell = settings: applied topically to the eyes; in vitro model; cited from earlier work
macular edema = settings: in vivo; cited from earlier work
[6] = system: patients with retinitis pigmentosa; settings: cited from earlier work
retinitis pigmentosa [7] = settings: administered in a form suitable to obtain therapeutic tissue concentrations; cited from earlier work
[8] = Description: The present invention formulations contain only 0.10 to 1.00 IU per drop which the dosage can be increased or the dosage can be decreased depending upon the disease states.
retinitis pigmentosa [9] = experiment: Insulin ophthalmic drops in oculopathies including retinitis pigmentosa; type: in vivo; settings: used for years
Description: This and other metabolic and therapeutic qualities of the insulin will prevent the development, stop the progression, and curtail or cure the retinitis pigmentosa. I have used insulin ophthalmic drops for various oculopathies, including, retinitis pigmentosa for years with great success.

[10] = Insulin added to anti allergic ophthalmic agents in eye allergy; type: in vivo; settings: insulin with vasoconstrictors and anti allergic agents such as corticosteroids
Description: Follow the instruction as described in the above EXAMPLE 1. The symptoms of an eye allergy are mild to moderate where allergies can be severe during early spring and the beginning of fall. Self treatment to avoid allergens, to irrigate the eyes with saline (salt solution) and to place the ice packs, and the cold water compresses on eyes which this may not be effective in a severe case. The medical treatment is needed to relieve them. Retinitis pigmentosa associated with severe allergic conjunctivitis. This condition isn't helped by other treatments. Conjunctivitis may benefit from specific allergen immunotherapy (desensitization) which the therapy is usually effective. Most commonly used and prescribed medications are: levocabastine (brand name Livostin); antihistamines (antolozine) together with a medicine that constricts blood vessels (naphazoline, phenylephrine); sodium cromoglycate (4%); non-steroidal anti-inflammatory (NSAID) eye drops; and steroids (hydrocortisone, Dexamethasone, prednisolone). Eye drops containing anti allergic, vasoconstrictors, and cortisone, can be used long term to treat retinitis pigmentosa and allergic conditions. The drops with insulin applied before the use of the above described therapeutic agents.

[11] = preliminary studies
[12] = system: H2O2 induced lipid peroxidation; settings: insulin pretreatment; cited from earlier work
[13] = system: MCF-7 human breast cancer cells; settings: in vitro; cited from earlier work

For CS(C)(=O)=O [MSM, Methylsulfonylmethane], the “vision reported by patients” value ([1]; MSM ophthalmic drops, aged, Lyme disease and cancer patients) is listed as “their vision had improved”, the “treatment result in retinitis pigmentosa, dry eye syndrome, glaucoma and other oculopathies” value ([1]; aqueous MSM mixed with insulin, as eye drops) is listed as “good results” and the solubility in water [2] is listed as “soluble in water”.

With anethole dithiolethione [ADT] the “treatment result in dry mouth and dry eyes conditions” value [3] was “successes”.

In the case of COc1cc(/C=C/C(=O)CC(=O)/C=C/c2ccc(O)c(OC)c2)ccc1O [Curcumin, curcumin], the “toxicity to the retina or the CNS” value [4] is reported as “isn't toxic to the retina or the CNS”.

In the case of Insulin glulisine, the “Onset of Action in hours” value [5] is given as “¼-½”.

In the case of Insulin aspart, the “Onset of Action in hours” value [5] is listed as “¼-½”.

In the case of brimonidine tartrate, the photoreceptor cell degeneration (photoreceptor cell) is given as “can prevent photoreceptor cell degeneration”.

For CC(=O)Nc1nnc(S(N)(=O)=O)s1 [Acetazolamide], the “improving the macular edema compared to brinzolamide” value (macular edema) is given as “more effective”.

For Insulin detemir, the “Effective duration of action” value [5] is listed as 14 h, the “Maximum duration” value [5] is listed as roughly 20 h and the “Onset of Action” value [5] is listed as 3 to 4 h. For the same compound, the “Peak action in hours” value [5] was 6 to 8 h.

For Insulin glargine, the “Effective duration of action” value [5] is given as 18 to 20 h, the “Maximum duration” value [5] is given as 20 to 24 h and the “Onset of Action” value [5] is given as 3 to 4 h. The “Peak action in hours” value [5] was 8 to 16 h.

For vitamin A, the postponement of blindness ([6]; vitamin A supplementation) is given as roughly 10 years.

In the case of Regular (soluble): short-acting insulin, the “Effective duration of action” value [5] is given as 3 to 6 h, the “Maximum duration” value [5] is given as 6 to 8 h and the “Peak action in hours” value [5] is given as 2 to 3 h.

In the case of CCCCCCCCCCCCCCCC(=O)OC/C=C(C)/C=C/C=C(C)/C=C/C1=C(C)CCCC1(C)C [vitamin A palmitate], the “progression of retinitis pigmentosa” value ([6]; daily intake of 15000 IU (equivalent to 4.5 mg)) is listed as “can be reduced”.

In the case of Insulin lispro, the “Onset of Action in hours” value [5] is listed as “¼-½”.

For O=C(O)COc1nn(Cc2ccccc2)c2ccccc12 [bendazac, (1-phenylmethyl-1IH-indazol-3-yl) oxy acetic acid], the “effect on retinitis pigmentosa” value (retinitis pigmentosa [7]) is given as “improvement in retinitis pigmentosa”.

In the case of insulin, the “blood sugar levels after local application” value ([8]; local application incl. scalp, gums, oral and nasal mucosa, conjunctival sac, wounds, tumors) is reported as “did not change the blood sugar levels”, the hypoglycemic effects ([8]; ophthalmic insulin drops, applicant's practice) is reported as “never reported the development of a single case of hypoglycemic effects” and the “treatment result in oculopathies including retinitis pigmentosa” value (retinitis pigmentosa [9]) is reported as “great success”. For the same compound, the “relief of the allergic condition” value [10] was “relieved rapidly”, the “absorption from the conjunctival sac” value [11] was “rapidly absorbed” and the “H2O2 induced lipid peroxidation” value [12] was “greatly inhibited”. For the same compound, the “increase of the cytotoxic effect of methotrexate” value [13] was “up to 10,000 fold”.

From patent publication US20110021974A1, “RETINITIS PIGMENTOSA TREATMENT AND PROPHALAXIS” (priority 2010, published 2011)
